Results reported in the supplement of paper PMC9112550, “Optimization of the antimicrobial peptide Bac7 by deep mutational scanning” (BMC Biology, 2022).

System: Escherichia coli TOP10
Assay: shrunken log2 fold change of peptide-encoding DNA abundance (4.5 h post-induction vs induction); higher = less antimicrobial activity (less host growth inhibition)
Conditions: time post-induction: 4.5 h; library: site-saturation at positions 5, 18, 19, 20
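Note: peptides expressed intracellularly from a pBAD plasmid library in pooled LB shake-flask culture, induced with 0.3% L-arabinose, DNA abundance read by NGS, three biological replicates, DESeq2 with apeglm shrinkage.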

Sequence	shrunken log2 fold change
RRIRPRPPRLPRPRPRPGMTPRP	0.0694
RRIRARPPRLPRPRPRPKCMPRP	0.0351
RRIRIRPPRLPRPRPRPWVQPRP	-0.0105
RRIRERPPRLPRPRPRPQKWPRP	-0.473
RRIRGRPPRLPRPRPRPYCNPRP	-0.411
RRIRQRPPRLPRPRPRPQMGPRP	-0.553
RRIRYRPPRLPRPRPRPIPAPRP	-0.0717
RRIRPRPPRLPRPRPRPNCIPRP	-0.134
RRIRLRPPRLPRPRPRPPDCPRP	0.0366
RRIRCRPPRLPRPRPRPPCFPRP	0.197
RRIRGRPPRLPRPRPRPTDTPRP	0.656
RRIRARPPRLPRPRPRPCQQPRP	-0.00897
RRIRWRPPRLPRPRPRPGYRPRP	0.0673
RRIRKRPPRLPRPRPRPVWSPRP	-0.0616
RRIRRRPPRLPRPRPRPSTKPRP	0.068
RRIRFRPPRLPRPRPRPMSCPRP	0.0282
RRIRARPPRLPRPRPRPKFTPRP	0.00836
RRIRARPPRLPRPRPRPCNTPRP	-0.0534
RRIRKRPPRLPRPRPRPNRDPRP	0.169
RRIRARPPRLPRPRPRPKQTPRP	0.453
RRIRPRPPRLPRPRPRPDSQPRP	-0.127
RRIRPRPPRLPRPRPRPMMRPRP	0.224
RRIRHRPPRLPRPRPRPLAKPRP	0.107
RRIRLRPPRLPRPRPRPYYQPRP	-0.0534
RRIRTRPPRLPRPRPRPGLRPRP	0.598

Sequence	shrunken log2 fold change
RRIRWRPPRLPRPRPRPRVEPRP	0.0508
RRIRHRPPRLPRPRPRPQVRPRP	-0.134
RRIRNRPPRLPRPRPRPEAKPRP	0.302
RRIRDRPPRLPRPRPRPAYQPRP	-0.381
RRIRPRPPRLPRPRPRPMLCPRP	0.122
RRIRQRPPRLPRPRPRPLYYPRP	0.614
RRIRERPPRLPRPRPRPDPPPRP	0.32
RRIRIRPPRLPRPRPRPIPLPRP	3.4
RRIRWRPPRLPRPRPRPRDTPRP	0.11
RRIRKRPPRLPRPRPRPWFAPRP	0.171
RRIRRRPPRLPRPRPRPPPNPRP	0.951
RRIRQRPPRLPRPRPRPQTCPRP	0.0348
RRIRTRPPRLPRPRPRPDNSPRP	-0.0647
RRIRIRPPRLPRPRPRPEKKPRP	-0.0556
RRIRFRPPRLPRPRPRPREFPRP	0.0793
RRIRTRPPRLPRPRPRPNMHPRP	0.561
RRIRARPPRLPRPRPRPVSSPRP	0.155
RRIRTRPPRLPRPRPRPSWPPRP	0.0669
RRIRFRPPRLPRPRPRPGENPRP	0.995
RRIRARPPRLPRPRPRPHFLPRP	-0.127
RRIRRRPPRLPRPRPRPEQAPRP	-0.0266
RRIRFRPPRLPRPRPRPHGSPRP	-0.0241
RRIRCRPPRLPRPRPRPVGQPRP	0.0533
RRIRVRPPRLPRPRPRPYRTPRP	-0.19
RRIRDRPPRLPRPRPRPTQMPRP	0.583

Sequence	shrunken log2 fold change
RRIRHRPPRLPRPRPRPMVWPRP	0.0787
RRIRKRPPRLPRPRPRPNPDPRP	0.383
RRIRGRPPRLPRPRPRPAPRPRP	1.85
RRIRDRPPRLPRPRPRPEWKPRP	-0.0135
RRIRARPPRLPRPRPRPVWSPRP	0.197
RRIRERPPRLPRPRPRPKHCPRP	0.0411
RRIRQRPPRLPRPRPRPWIVPRP	-0.0927
RRIRCRPPRLPRPRPRPVLKPRP	0.181
RRIRSRPPRLPRPRPRPWNGPRP	-0.0136
RRIRDRPPRLPRPRPRPRGAPRP	0.772
RRIRERPPRLPRPRPRPSMEPRP	-0.14
RRIRDRPPRLPRPRPRPVLEPRP	0.627
RRIRFRPPRLPRPRPRPAQLPRP	0.36
RRIRFRPPRLPRPRPRPVCQPRP	0.109
RRIRHRPPRLPRPRPRPPFAPRP	0.564
RRIRTRPPRLPRPRPRPACFPRP	0.252
RRIRQRPPRLPRPRPRPGQSPRP	-0.0203
RRIRPRPPRLPRPRPRPFKKPRP	-0.161
RRIRVRPPRLPRPRPRPAFQPRP	0.151
RRIRWRPPRLPRPRPRPGLEPRP	1.46
RRIRVRPPRLPRPRPRPNVNPRP	-0.494
RRIRHRPPRLPRPRPRPKWCPRP	-0.142
RRIRDRPPRLPRPRPRPMKHPRP	-0.245
RRIRKRPPRLPRPRPRPHTRPRP	0.29
RRIRHRPPRLPRPRPRPNALPRP	0.0224

Sequence	shrunken log2 fold change
RRIRHRPPRLPRPRPRPYWSPRP	-0.171
RRIRERPPRLPRPRPRPNKYPRP	0.202
RRIRYRPPRLPRPRPRPPQPPRP	0.436
RRIRDRPPRLPRPRPRPTWDPRP	0.629
RRIRHRPPRLPRPRPRPMQKPRP	-0.0124
RRIRHRPPRLPRPRPRPTTWPRP	-0.182
RRIRQRPPRLPRPRPRPLVCPRP	0.0584
RRIRNRPPRLPRPRPRPNLTPRP	-0.335
RRIRNRPPRLPRPRPRPKCCPRP	-0.0855
RRIRGRPPRLPRPRPRPMCCPRP	0.164
RRIRQRPPRLPRPRPRPTQYPRP	-0.0342
RRIRHRPPRLPRPRPRPWCAPRP	-0.145
RRIRKRPPRLPRPRPRPMEVPRP	0.101
RRIRCRPPRLPRPRPRPYEFPRP	-0.0684
RRIRSRPPRLPRPRPRPDWWPRP	-0.0873
RRIRDRPPRLPRPRPRPVKAPRP	0.026
RRIRGRPPRLPRPRPRPQWQPRP	-0.134
RRIRIRPPRLPRPRPRPGTNPRP	-0.314
RRIRQRPPRLPRPRPRPPYHPRP	-0.208
RRIRARPPRLPRPRPRPLAAPRP	0.942
RRIRSRPPRLPRPRPRPYGLPRP	-0.0943
RRIRNRPPRLPRPRPRPCRVPRP	-0.0128
RRIRKRPPRLPRPRPRPHAFPRP	0.106
RRIRVRPPRLPRPRPRPRWIPRP	-0.0863
RRIRGRPPRLPRPRPRPVSIPRP	0.00516

Sequence	shrunken log2 fold change
RRIRVRPPRLPRPRPRPHPYPRP	-1.08
RRIRNRPPRLPRPRPRPPKNPRP	0.196
RRIRGRPPRLPRPRPRPWWGPRP	-0.0457
RRIRARPPRLPRPRPRPQKMPRP	-0.000461
RRIRTRPPRLPRPRPRPVYEPRP	0.00717
RRIRRRPPRLPRPRPRPFFRPRP	0.354
RRIRARPPRLPRPRPRPNFHPRP	0.0254
RRIRGRPPRLPRPRPRPTAAPRP	1.97
RRIRPRPPRLPRPRPRPNTKPRP	0.0992
RRIRMRPPRLPRPRPRPYYHPRP	-0.459
RRIRCRPPRLPRPRPRPSQPPRP	0.075
RRIRVRPPRLPRPRPRPAEAPRP	0.729
RRIRARPPRLPRPRPRPDSWPRP	0.508
RRIRERPPRLPRPRPRPITEPRP	-0.159
RRIRWRPPRLPRPRPRPSPWPRP	0.0588
RRIRMRPPRLPRPRPRPGVDPRP	1.68
RRIRDRPPRLPRPRPRPSWIPRP	-0.454
RRIRKRPPRLPRPRPRPNIPPRP	-0.237
RRIRWRPPRLPRPRPRPLRDPRP	0.655
RRIRARPPRLPRPRPRPTDGPRP	0.0971
RRIRTRPPRLPRPRPRPMPKPRP	0.116
RRIRGRPPRLPRPRPRPMTQPRP	0.28
RRIRTRPPRLPRPRPRPCSHPRP	0.13
RRIRVRPPRLPRPRPRPRMHPRP	0.151
RRIRFRPPRLPRPRPRPIRVPRP	0.0245

Sequence	shrunken log2 fold change
RRIRERPPRLPRPRPRPWFTPRP	-0.187
RRIRWRPPRLPRPRPRPRPLPRP	0.158
RRIRTRPPRLPRPRPRPYPEPRP	-0.817
RRIRPRPPRLPRPRPRPCYQPRP	-0.565
RRIRGRPPRLPRPRPRPVHCPRP	0.0385
RRIRTRPPRLPRPRPRPGIEPRP	-0.278
RRIRYRPPRLPRPRPRPQIKPRP	-0.969
RRIRQRPPRLPRPRPRPDICPRP	-0.0144
RRIRKRPPRLPRPRPRPCGFPRP	0.279
RRIRQRPPRLPRPRPRPFASPRP	-0.35
RRIRGRPPRLPRPRPRPQNEPRP	0.208
RRIRNRPPRLPRPRPRPRNEPRP	0.121
RRIRVRPPRLPRPRPRPKDPPRP	-0.106
RRIRARPPRLPRPRPRPQENPRP	0.394
RRIRERPPRLPRPRPRPRTQPRP	0.111
RRIRLRPPRLPRPRPRPSWMPRP	-0.167
RRIRGRPPRLPRPRPRPDMQPRP	0.37
RRIRTRPPRLPRPRPRPDQPPRP	0.00486
RRIRYRPPRLPRPRPRPWTNPRP	-0.00804
RRIRHRPPRLPRPRPRPEVFPRP	-0.0194
RRIRIRPPRLPRPRPRPFDQPRP	-0.385
RRIRLRPPRLPRPRPRPNQSPRP	-0.0737
RRIRPRPPRLPRPRPRPHGPPRP	0.0292
RRIRNRPPRLPRPRPRPEHDPRP	0.0627
RRIRGRPPRLPRPRPRPQDLPRP	-0.00287
